Experimental data published in patent US20260109776A1 (Amgen, published 2026).
Where two headings read alike, the source gives them in different places.

T1: cynoMSLN(296-598) (cynomolgus monkey)
T1 chain: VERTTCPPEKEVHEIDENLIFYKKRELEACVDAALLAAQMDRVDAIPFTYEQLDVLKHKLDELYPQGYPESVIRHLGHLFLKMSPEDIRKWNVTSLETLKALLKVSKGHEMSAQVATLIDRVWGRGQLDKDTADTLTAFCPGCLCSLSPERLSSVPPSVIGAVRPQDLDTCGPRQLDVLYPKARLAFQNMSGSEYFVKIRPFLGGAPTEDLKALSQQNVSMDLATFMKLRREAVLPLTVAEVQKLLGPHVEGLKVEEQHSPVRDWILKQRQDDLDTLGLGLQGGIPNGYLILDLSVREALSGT

T2: cynoCD40(1-193) (cynomolgus monkey, UniProt P25942 21-193 (human entry))
T2 construct: also called soluble cynomolgus monkey CD40
T2 chain: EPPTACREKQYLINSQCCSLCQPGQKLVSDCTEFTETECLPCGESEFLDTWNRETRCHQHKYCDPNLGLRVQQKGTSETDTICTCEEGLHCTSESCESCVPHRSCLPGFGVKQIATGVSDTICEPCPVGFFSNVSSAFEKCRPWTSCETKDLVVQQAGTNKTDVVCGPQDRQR

T3: cynoCD40(1-193) (cynomolgus monkey, UniProt P25942 21-193 (human entry))
T3 construct: Soluble form used in Octet; also called cynomolgus monkey CD40
T3 chain: T2 chain

T4: soluble recombinant cynomolgus monkey mesothelin (cynomolgus monkey)
T4 chain: T1 chain

B1: 6052-2 (bispecific antibody)
heavy: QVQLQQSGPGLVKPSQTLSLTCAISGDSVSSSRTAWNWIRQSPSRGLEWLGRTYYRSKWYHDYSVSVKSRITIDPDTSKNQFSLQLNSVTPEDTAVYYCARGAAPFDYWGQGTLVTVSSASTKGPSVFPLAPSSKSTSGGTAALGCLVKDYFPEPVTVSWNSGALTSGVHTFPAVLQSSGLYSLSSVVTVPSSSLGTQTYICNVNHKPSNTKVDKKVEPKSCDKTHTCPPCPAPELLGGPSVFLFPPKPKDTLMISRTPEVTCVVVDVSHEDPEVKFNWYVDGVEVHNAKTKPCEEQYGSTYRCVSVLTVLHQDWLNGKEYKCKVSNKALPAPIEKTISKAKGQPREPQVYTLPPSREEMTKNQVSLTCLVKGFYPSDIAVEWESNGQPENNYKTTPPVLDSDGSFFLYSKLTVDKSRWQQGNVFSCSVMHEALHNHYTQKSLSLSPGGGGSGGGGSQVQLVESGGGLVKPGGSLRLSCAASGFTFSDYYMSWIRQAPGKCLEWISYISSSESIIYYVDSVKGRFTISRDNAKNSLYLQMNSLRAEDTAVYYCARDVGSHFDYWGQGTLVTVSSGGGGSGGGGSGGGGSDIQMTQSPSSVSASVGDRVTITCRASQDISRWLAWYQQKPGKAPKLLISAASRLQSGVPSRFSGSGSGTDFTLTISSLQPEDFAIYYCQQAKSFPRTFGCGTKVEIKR
light: EIVLTQSPGTLSLSPGERATLSCRASQSVSSNYLAWYQQKPGQAPRALIYAASNRAAGISDRFSGSGSGTDFTLTISRLEPEDFAVYFCQQYGSSPLTFGGGTKVEIKRTVAAPSVFIFPPSDEQLKSGTASVVCLLNNFYPREAKVQWKVDNALQSGNSQESVTEQDSKDSTYSLSSTLTLSKADYEKHKVYACEVTHQGLSSPVTKSFNRGEC
notes: IgG-scFv: IgG (CD40) 36F3, scFv (MSLN) 6F4; also called 6052-3
B2: Anti-CD40xMSLN IgG-Fab molecule 5970-1 (bispecific antibody)
chain 1: QVQLVESGGGLVKPGGSLRLSCAASGFTFSDYYMSWIRQAPGKGLEWISYISSSESIIYYVDSVKGRFTISRDNAKNSLYLQMNSLRAEDTAVYYCARDVGSHFDYWGQGTLVTVSS
chain 2: DIQMTQSPSSVSASVGDRVTITCRASQDISRWLAWYQQKPGKAPKLLISAASRLQSGVPSRFSGSGSGTDFTLTISSLQPEDFAIYYCQQAKSFPRTFGQGTKVEIKR
chain 3: QVQLVESGGGVVQPGRSLRLSCAASGFTFSSHGMHWVRQPPGKGLEWVAVIWYDGSNEYYGDSVKGRFTISRDNSKNTLYLQMNSLRVEDTAVYYCTRGGGHWNYEGHYYGMDVWGQGTTVTVSS
chain 4: QAVPTQPSSLSASPGASASLTCTLRSGINVGSSRIYWYQQKPGSPPQFLLRYTSDSDKLQGSGVPSRFSGSKDASANAGLLLISGLQSEDEADYYCMIWHSSAVVFGGGTKLTVLG
B3: Anti-CD40xMSLN IgG-Fab molecule 5987-1 (bispecific antibody)
chain 1: QVQLVQSGAEVTKPGASVKVSCKASGYTFAGYYMHWVRQAPGQGLEWMGWINPHSGGTNYAQKFQDRVTMTRDTSINTAYMELSRLRSDDTAVYYCARERISMVRGVGHNWFAPWGQGTLVTVSS
chain 2: DIQMTQSPSSLSASVGDRVTITCRASQDISNNLAWFQQKPGKPPKSLMYAASSLHSGVPSTFSGSGSGTDFTFTISSLQPEDFATYYCQQYNSYPLTFGGGTKVEIRR
chain 3: B2 chain 1
chain 4: B2 chain 2
B4: Anti-CD40xMSLN IgG-Fab molecule 5972-1 (bispecific antibody)
chain 1: B2 chain 1
chain 2: B2 chain 2
chain 3: QVQLQQSGPGLVKPSQTLSLTCAISGDSVSSSRTAWNWIRQSPSRGLEWLGRTYYRSKWYHDYSVSVKSRITIDPDTSKNQFSLQLNSVTPEDTAVYYCARGAAPFDYWGQGTLVTVSS
chain 4: EIVLTQSPGTLSLSPGERATLSCRASQSVSSNYLAWYQQKPGQAPRALIYAASNRAAGISDRFSGSGSGTDFTLTISRLEPEDFAVYFCQQYGSSPLTFGGGTKVEIKR
B5: Anti-CD40xMSLN IgG-Fab molecule 5973-1 (bispecific antibody)
chain 1: B2 chain 1
chain 2: B2 chain 2
chain 3: QVQLVESGGGLVKPGGSLRLSCAASEFTFSDYYMSWIRQAPGKGLEWVSYISRSGDTIYYADSVKGRFTISRDNAKNSLYLQMNGLRAEDTAVYYCARDLAAGATGGLDCWGQGTLVTVSS
chain 4: SYELTQPPSVSVSPGQTASITCSGERLGNKYICWYQQKPGQSPVLVIYQDFKRPSGIPERFSGSNSGITATLTISGTQAMDEADYYCQAWDSRTVVFGGGTKLTVLG
B6: anti-mesothelin antibody 7G11 (antibody, V domains shown)
VH: EVQLVESGGGLIQPGGSLRLSCAVSGFTVSSKFMTWVRQAPGKGLEWVSVIYSGGKTYYADSVKGRFTISRDNSKNTLYLQMNSLRAEDTAVYYCARDSGGWGYFDYWGQGTLVTVSS
VL: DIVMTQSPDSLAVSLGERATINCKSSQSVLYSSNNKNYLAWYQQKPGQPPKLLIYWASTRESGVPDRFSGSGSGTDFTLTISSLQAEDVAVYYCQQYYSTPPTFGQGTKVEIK

Tests used:
human CD40 [1] = molecular target: T5, human CD40 (human, UniProt P25942 21-277); experiment: cell-based or functional assay
huMSLN(296-598) [2] = molecular target: T6, huMSLN(296-598) (human, UniProt Q13421 296-598); experiment: Octet
T6 construct: also called soluble human mesothelin
Experimental: (§1) A panel of mesothelin×CD40 bispecific antibodies were generated in the IgG-scFv format (Table 13) and evaluated for binding to soluble forms of human and cynomolgus monkey CD40 and human and cynomolgus monkey mesothelin using the Octet assay (Table 14). Association rate (Kon), disassociation rate (Kdis), and equilibrium binding constant (KD) were calculated. […] These bispecific antibodies were next evaluated for their ability to induce mesothelin-dependent activation of human B cells. CHO cells expressing human mesothelin were seeded into a 96 well plate. The next day varying concentrations of the mesothelin×CD40 IgG-scFv antibodies were added to the wells along with purified human B cells and the plates were incubated for an additional 48 hours. Upregulation of CD86, a marker of CD40-mediated B cell activation, was quantified on B cells by flow cytometry.
T6 sequence (Q13421 other isoform, or with tags, fused parts or gaps): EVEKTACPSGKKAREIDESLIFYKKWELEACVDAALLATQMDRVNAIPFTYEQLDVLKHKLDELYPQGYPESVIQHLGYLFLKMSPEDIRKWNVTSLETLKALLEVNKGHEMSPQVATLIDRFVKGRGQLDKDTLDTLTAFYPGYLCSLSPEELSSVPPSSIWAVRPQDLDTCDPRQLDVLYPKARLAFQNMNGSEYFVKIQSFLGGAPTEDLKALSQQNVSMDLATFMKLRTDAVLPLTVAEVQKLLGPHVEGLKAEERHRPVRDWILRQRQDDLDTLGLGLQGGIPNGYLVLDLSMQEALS

cynoMSLN(296-598) = molecular target: T1, cynoMSLN(296-598); experiment: Octet
Experimental: as §1

cynoCD40(1-193) [3] = molecular target: T2, cynoCD40(1-193); experiment: Octet
Experimental: as §1

huCD40(1-193) [4] = molecular target: T7, huCD40(1-193) (human, UniProt P25942 21-193); experiment: Octet
T7 construct: also called soluble human CD40
Experimental: as §1

human CD40 [5] = molecular target: T5, human CD40; experiment: cell-based or functional assay; remark: listed apart in the source
cynoCD40(1-193) [6] = molecular target: T3, cynoCD40(1-193); experiment: Octet, soluble antigen
huCD40(1-193) [7] = molecular target: T8, huCD40(1-193) (human, UniProt P25942 21-193); experiment: Octet, soluble antigen
T8 construct: Soluble form used in Octet; also called human CD40; soluble human CD40

huMSLN(296-598) [8] = molecular target: huMSLN(296-598) (human, UniProt Q13421 296-598); experiment: Octet, soluble antigen
Target sequence in this assay (Q13421 other isoform, or with tags, fused parts or gaps): as above

[9] = molecular target: human CD40 on purified human B cells (human, UniProt P25942 21-277); experiment: cell-based or functional assay
[10] = molecular target: T4, soluble recombinant cynomolgus monkey …; experiment: Octet, soluble recombinant cyno MSLN

| Binder | Kd (cynoCD40(1-193) [6]) | koff (cynoCD40(1-193) [6]) | kon (cynoCD40(1-193) [6]) | Kd (huCD40(1-193) [7]) | koff (huCD40(1-193) [7]) | kon (huCD40(1-193) [7]) | Kd (huMSLN(296-598) [8]) | koff (huMSLN(296-598) [8]) | kon (huMSLN(296-598) [8]) | EC50 (nM), CD86 upregulation on human B cells in the presence of CHO cells expressing human mesothelin [9] | further results |
| --- | --- | --- | --- | --- | --- | --- | --- | --- | --- | --- | --- |
| B1 |  |  |  |  |  |  |  |  |  |  | EC50 (nM), CD86 upregulation on human B cells with huMSLN-CHO cells (human CD40 [1]): 0.00445 nM; Kd (huMSLN(296-598) [2]): 0.7 nM; koff (huMSLN(296-598) [2]): 0.000533 s⁻¹; kon (huMSLN(296-598) [2]): 713000 M⁻¹ s⁻¹; Kd (cynoMSLN(296-598)): 19 nM; koff (cynoMSLN(296-598)): 0.00519 s⁻¹; kon (cynoMSLN(296-598)): 269000 M⁻¹ s⁻¹; Kd (cynoCD40(1-193) [3]): 3.3 nM; koff (cynoCD40(1-193) [3]): 0.00035 s⁻¹; kon (cynoCD40(1-193) [3]): 105000 M⁻¹ s⁻¹; Kd (huCD40(1-193) [4]): 2.5 nM; koff (huCD40(1-193) [4]): 0.000556 s⁻¹; kon (huCD40(1-193) [4]): 218000 M⁻¹ s⁻¹; EC50 (nM), CD86 upregulation on human B cells with huMSLN-CHO cells (human CD40 [5]): 0.00316 nM |
| B2 | 1.3 nM | 0.000208 s⁻¹ | 163000 M⁻¹ s⁻¹ | 1.6 nM | 0.000395 s⁻¹ | 245000 M⁻¹ s⁻¹ | 0.3 nM | 0.000258 s⁻¹ | 774000 M⁻¹ s⁻¹ | 0.005 nM |  |
| B3 | 0.7 nM | 0.000526 s⁻¹ | 752000 M⁻¹ s⁻¹ | 0.7 nM | 0.000423 s⁻¹ | 600000 M⁻¹ s⁻¹ | 1 nM | 0.000439 s⁻¹ | 424000 M⁻¹ s⁻¹ | 0.003 nM |  |
| B4 | 1.7 nM | 0.000137 s⁻¹ | 80600 M⁻¹ s⁻¹ | 4 nM | 0.000531 s⁻¹ | 134000 M⁻¹ s⁻¹ | 0.5 nM | 0.00027 s⁻¹ | 568000 M⁻¹ s⁻¹ | 0.007 nM |  |
| B5 | 0.6 nM | 0.000404 s⁻¹ | 669000 M⁻¹ s⁻¹ | 0.6 nM | 0.000325 s⁻¹ | 541000 M⁻¹ s⁻¹ | 0.5 nM | 0.000223 s⁻¹ | 451000 M⁻¹ s⁻¹ | 0.006 nM |  |
| B6 |  |  |  |  |  |  |  |  |  |  | Kd [10]: 6.4 nM; koff [10]: 0.00188 s⁻¹; kon [10]: 294000 M⁻¹ s⁻¹ |
